# Measurements taken from patent US20240376151A1, “STAPLED PEPTIDES AND METHODS THEREOF” (FOG PHARMACEUTICALS, INC., priority 2022, published 2024).
# Target: T1, beta-catenin (Homo sapiens, UniProt P35222)
# T1 construct: made in house; host or cells: E. coli BL21 (DE3) pLysS
# T1 sequence (P35222 134-665): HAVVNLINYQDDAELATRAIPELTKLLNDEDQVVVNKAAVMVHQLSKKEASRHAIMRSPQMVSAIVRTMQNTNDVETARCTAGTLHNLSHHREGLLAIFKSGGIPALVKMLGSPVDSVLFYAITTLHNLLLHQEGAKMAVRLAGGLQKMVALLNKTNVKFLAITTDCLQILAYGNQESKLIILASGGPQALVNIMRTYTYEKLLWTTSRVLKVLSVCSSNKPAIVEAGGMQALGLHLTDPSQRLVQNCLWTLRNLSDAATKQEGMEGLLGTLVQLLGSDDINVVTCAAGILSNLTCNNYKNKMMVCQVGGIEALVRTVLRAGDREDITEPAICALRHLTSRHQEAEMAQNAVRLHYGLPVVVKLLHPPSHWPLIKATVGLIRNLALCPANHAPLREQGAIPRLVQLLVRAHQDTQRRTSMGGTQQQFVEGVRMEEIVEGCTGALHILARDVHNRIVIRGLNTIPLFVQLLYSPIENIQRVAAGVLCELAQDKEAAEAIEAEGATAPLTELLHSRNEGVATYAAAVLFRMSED
# Assay: Phage Library Screening with NGS, beta-catenin
# Type: binding
# Settings: for Target Concentration 10 (phage screen NGS readout): beta-catenin target concentration 10; for Target Concentration 10 (phage screen NGS readout) / Target Concentration 30 (phage screen NGS readout) / Target Concentration 100 (phage screen NGS readout) / Target Concentration 300 (phage screen NGS readout): no competitor; for Target Concentration 30 (phage screen NGS readout): beta-catenin target concentration 30; for Target Concentration 100 (phage screen NGS readout): beta-catenin target concentration 100; for Target Concentration 300 (phage screen NGS readout): beta-catenin target concentration 300; for Target Concentration 1000 (phage screen NGS readout): beta-catenin target concentration 1000
Sequence,Target Concentration BLANK (phage screen NGS readout) (first column),Target Concentration BLANK (phage screen NGS readout) (fourth column),Target Concentration BLANK (phage screen NGS readout) (second column),Target Concentration BLANK (phage screen NGS readout) (third column),Target Concentration 10 (phage screen NGS readout),Target Concentration 30 (phage screen NGS readout),Target Concentration 100 (phage screen NGS readout),Target Concentration 300 (phage screen NGS readout),Target Concentration 1000 (phage screen NGS readout) (first 1000 column),Target Concentration 1000 (phage screen NGS readout) (second 1000 column)
DPAIIRCYEAAFYCQNY,0,0,0,1,0,3,10,67,93,94
DPAILDCQLAAIDCVYT,0,0,0,0,3,21,67,168,201,114
DPAILDCQLAAMDCSTW,0,0,0,0,0,6,22,21,25,55
DPAILECYEAAFECQYM,0,0,0,0,7,8,20,49,41,39
DPAILNCHVAAWNCHSF,0,0,0,0,0,0,1,8,4,23
DPAILQCYEAAFSCHYQ,0,0,0,0,0,9,40,54,39,42
DPAIMACYEAAYLCDYI,1,1,0,0,2,4,29,85,111,150
DPAIMACYQAAFWCQYN,1,0,0,1,0,0,4,27,29,18

# The next lines start with the values.
Target Concentration BLANK (phage screen NGS readout) (first column),Target Concentration BLANK (phage screen NGS readout) (fourth column),Target Concentration BLANK (phage screen NGS readout) (second column),Target Concentration BLANK (phage screen NGS readout) (third column),Target Concentration 10 (phage screen NGS readout),Target Concentration 30 (phage screen NGS readout),Target Concentration 100 (phage screen NGS readout),Target Concentration 300 (phage screen NGS readout),Target Concentration 1000 (phage screen NGS readout) (first 1000 column),Target Concentration 1000 (phage screen NGS readout) (second 1000 column),Sequence
0,3,0,0,2,1,6,8,1,44,DPAILDCHIAAIQCFHD
0,1,0,0,0,22,76,68,139,56,DPAILDCQIAAIECEFA
0,0,0,0,0,0,16,42,39,29,DPAILDCSIAAIDCAYS
0,0,0,0,8,2,20,59,86,41,DPAILECHMAAFECYIE
0,0,2,0,0,2,40,55,98,81,DPAILECHVAALDCQMW
0,0,0,1,0,7,14,57,37,59,DPAILNCHMAAWDCNFY
0,0,1,0,0,7,18,71,69,105,DPAILTCYEAAFTCQYQ
